Results on two sequences are retold here after PMC12632272.

The target in data set [1] is T1, CRP (cAMP receptor protein) (Escherichia coli ATCC 25922) (UniProt P0ACJ8).
T1 sequence: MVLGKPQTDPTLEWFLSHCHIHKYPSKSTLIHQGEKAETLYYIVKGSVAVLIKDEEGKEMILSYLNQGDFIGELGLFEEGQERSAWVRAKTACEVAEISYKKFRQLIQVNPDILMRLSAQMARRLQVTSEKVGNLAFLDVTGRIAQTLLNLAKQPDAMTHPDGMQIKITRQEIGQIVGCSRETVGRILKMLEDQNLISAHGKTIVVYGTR
Put plainly: EMSA. The note with it: EMSA: 20 mM Tris (pH not stated), 10 mM MgCl2, 0.1 mM EDTA, 100 mM KCl, 200 uM cAMP, room temperature 15 min; 5% gel, 0.3x TBE, 150 V, 20 C. Background: In EMSA bound probe runs differently from free probe, usually more slowly.

The target in data set [2] is T1, CRP (cAMP receptor protein) (Escherichia coli ATCC 25922). Put plainly: competition. The note with it: EMSA: 20 mM Tris (pH not stated), 10 mM MgCl2, 0.1 mM EDTA, 100 mM KCl, 200 uM cAMP, room temperature 15 min; 5% gel, 0.3x TBE, 150 V, 20 C.

Regarding “CGCCTAAGTTTGCCCGTAATAATTCCCCGTGCAGTACTATTGTTGCGACATAACAACATGAATTACATGGTAATAATAGATGTTTTCCTCTGCTGATTCCTGTAAAGATCATGACTCCATACGACATCATTTTTAATATTATACAGTTCAAAAAATCTACATGTGTCACAAATAATTTTACATTTGATAATGTATAGTTGTCACATGACAAGTTGATTATCATTCTGTGTAGACAAGGAGAACTGTTATGACGGAT (double strand) [P1/2 DHAP shunt promoter fragment]”, the binding result in data set [1] is “binds”. Consider “CGCCTAAGTTTGCCCGTAATAATTCCCCGTGCAGTACTATTGTTGCGACATAACAACATGAATTACATGGTAATAATAGATGTTTTCCTCTGCTGATTCCTGTAAAGATCATGACTCCATACGACATCATTTTTAATATTATACAGTTCAAAAAATCTACATGTGTCACAAATAATTTTACATTTGATAATGTATAGTTGTCACATGACAAGTTGATTATCATTCTGTGTAGACAAGGAGAACTGTTATGACGGAT (double strand) [P1/2 unlabeled competitor]”, for which, in data set [2], the binding entry is “binds”.
